Data on two molecules can be found in US20040053231A1 (published 2004).

Assay [1] concerns the target T1, GST-p300CH1 (p300 residues 300-528) (UniProt Q09472 300-528).
T1 construct: range 300-528; Bacterially expressed, immobilised on glutathione beads; the construct is described in Bhattacharya et al., 1999; also called GST-CH1; GST tagged p300 (CH1 domain); not shown: glutathione S-transferase tag from pGEX4T1 (Pharmacia)
Briefly: GST pull-down of 35S-labelled in vitro translated protein on GST-p300CH1.

Assay [2] addresses T2, GAL4-CH1 (residues 300-528 of p300 fused to the DNA-binding domain of GAL4) (UniProt P04386 1-147; Q09472 300-528).
T2 construct: also called GAL4-p300CH1
Nature of the assay: mammalian two-hybrid, GAL4-luciferase reporter, Hep3B cells.

T1 sequence (Q09472 300-528): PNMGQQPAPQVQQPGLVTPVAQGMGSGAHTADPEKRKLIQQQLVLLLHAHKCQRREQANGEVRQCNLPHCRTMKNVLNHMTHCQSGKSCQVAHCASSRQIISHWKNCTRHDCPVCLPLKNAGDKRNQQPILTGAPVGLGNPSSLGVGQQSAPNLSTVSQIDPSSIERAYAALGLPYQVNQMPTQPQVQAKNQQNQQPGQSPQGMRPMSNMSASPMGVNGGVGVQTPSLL

B1: HCITEDX mutant lacking the carboxy-terminal residues 138 to 184 (other)
chain: MADHLMLAEGYRLVQRPPSAAAAHGPHALRTLPPYAGPGLDSGLRPRGAPLGPPPPRQPGALAYGAFGPPSSFQPFPAVPPPAAGIAHLQPVATPYPGRAAAPPNAPGGPPGPQPAPSAAAPPPPAHALGGMDAELI
modifications: 35S-labelled (in vitro translated) in the GST pull-down assay
notes: also called HCITEDXΔ; carboxy-terminal mutant
In the case of B1, the binding result in assay [1] is reported as “no binding”.

B2: VP16-HCITEDX? (VP16 activation domain fused to residues 1-137 of HCITEDX) (other)
chain: MADHLMLAEGYRLVQRPPSAAAAHGPHALRTLPPYAGPGLDSGLRPRGAPLGPPPPRQPGALAYGAFGPPSSFQPFPAVPPPAAGIAHLQPVATPYPGRAAAPPNAPGGPPGPQPAPSAAAPPPPAHALGGMDAELI
notes: also called VP16-HCITEDXΔ
For B2, the binding result in assay [2] was “no binding”.
